In the assay the target is NagA-GFP-His6 fusion protein (N-acetylglucosamine-6-phosphate deacetylase from Mycobacterium smegmatis with C-terminal TEV-cleavable GFP-His6) (Mycobacterium smegmatis). In words: SEC; Superdex 200 16/60, 20 mM Bis-Tris, 300 mM NaCl, 10% glycerol pH 8.0; oligomeric state from the elution profile.

In turn, “NagA-GFP-His6 fusion protein (N-acetylglucosamine-6-phosphate deacetylase from Mycobacterium smegmatis with C-terminal TEV-cleavable GFP-His6) (enzyme)” showed a stoichiometry N of 2.

(Values after paper PMC6180428.)
